To fix the notation:
B1: General transcription factor IIH subunit 4 (Homo sapiens), Q92759 (parent)
chain: MESTPSRGLNRVHLQCRNLQEFLGGLSPGVLDRLYGHPATCLAVFRELPSLAKNWVMRMLFLEQPLPQAAVALWVKKEFSKAQEESTGLLSGLRIWHTQLLPGGLQGLILNPIFRQNLRIALLGGGKAWSDDTSQLGPDKHARDVPSLDKYAEERWEVVLHFMVGSPSAAVSQDLAQLLSQAGLMKSTEPGEPPCITSAGFQFLLLDTPAQLWYFMLQYLQTAQSRGMDLVEILSFLFQLSFSTLGKDYSVEGMSDSLLNFLQHLREFGLVFQRKRKSRRYYPTRLAINLSSGVSGAGGTVHQPGFIVVETNYRLYAYTESELQIALIALFSEMLYRFPNMVVAQVTRESVQQAIASGITAQQIIHFLRTRAHPVMLKQTPVLPPTITDQIRLWELERDRLRFTEGVLYNQFLSQVDFELLLAHARELGVLVFENSAKRLMVVTPAGHSDVKRFWKRQKHSS
partner: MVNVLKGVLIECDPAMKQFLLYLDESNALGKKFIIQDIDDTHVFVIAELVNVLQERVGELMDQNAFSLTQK

Experimental findings from IntAct's records for PubMed 19172752 are described below.

The test covers variants of B1. The conditions noted are these: with tf2h5_human GTF2H5, Q6ZYL4.
As for K438A;R439A, the “effect of a mutation on the interaction” value is on record as “decreasing interaction”.
